According to patent US20180194862A1 (AbbVie / Abbott, published 2018):

Tests used:
mouse 4-1BB = molecular target: T1, mouse 4-1BB (mouse, UniProt P20334 24-187); assay: SPR (Biacore)
T1 construct: also called mu4-1BB; murine 4-1BB
T1 sequence (looked up): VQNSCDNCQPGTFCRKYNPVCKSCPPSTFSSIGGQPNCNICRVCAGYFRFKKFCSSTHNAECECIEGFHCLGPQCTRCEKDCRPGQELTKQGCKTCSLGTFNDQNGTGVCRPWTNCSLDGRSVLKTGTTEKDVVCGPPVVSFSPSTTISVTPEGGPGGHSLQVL

cynomolgus mesothelin = molecular target: T2, cynomolgus mesothelin (cynomolgus); assay: SPR
T2 construct: also called cynoMSLN; Cyno MSLN

human mesothelin = molecular target: T3, human mesothelin (human, UniProt Q13421 296-580, limits assumed); assay: SPR
T3 construct: also called Human MSLN

[1] = molecular target: T4, mesothelin on cells (endogenous on SN12C, OVCAR3, SW1990); HEK293 cells expressing cell-surface human … (human, UniProt Q13421 296-598); assay: FACS, SN12C (CA125-)
T4 construct: whole, on cells; also called cell-surface MSLN
Experimental: (§1) The binding of anti-mesothelin affinity matured variants was measured by FACS on the ovarian cancer cell line OVCAR3, the pancreatic cancer cell line SW1990, and the renal cancer cell line SN12C. Both OVCAR3 and SW1990 express CA125, but CA125 expression on SN12C cells was not detected.

[2] = molecular target: T4, mesothelin on cells (endogenous on …); assay: FACS, OVCAR3 (CA125+)
Experimental: as §1

mouse CD40 = molecular target: T5, mouse CD40 (mouse, UniProt P27512 20-193, limits assumed); assay: FACS
T5 construct: also called murine CD40
T5 sequence (looked up): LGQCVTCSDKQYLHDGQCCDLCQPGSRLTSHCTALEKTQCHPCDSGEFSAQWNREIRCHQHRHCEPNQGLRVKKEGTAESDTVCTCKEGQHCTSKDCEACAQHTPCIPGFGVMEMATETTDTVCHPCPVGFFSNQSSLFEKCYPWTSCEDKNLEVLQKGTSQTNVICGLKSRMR

dog CD40 = molecular target: T6, dog CD40 (dog, UniProt Q7YRL5 21-194, limits assumed); assay: FACS
T6 sequence (looked up): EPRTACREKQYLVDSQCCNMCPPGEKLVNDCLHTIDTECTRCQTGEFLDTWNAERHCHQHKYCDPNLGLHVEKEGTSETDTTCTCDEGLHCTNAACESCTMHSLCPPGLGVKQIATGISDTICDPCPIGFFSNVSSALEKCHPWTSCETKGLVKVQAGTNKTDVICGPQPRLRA

[3] = molecular target: human CD40 on cells (HEK293 stable transfectants, HEK-Blue CD40 cells, human B cells, monocytic cells, … (human, UniProt P25942 21-277)); assay: cell-based or functional assay
Chain of human CD40 on cells (HEK293 stable transfectants, HEK-Blue CD40 cells, human B cells, monocytic cells, … (P25942 21-277 limits assumed): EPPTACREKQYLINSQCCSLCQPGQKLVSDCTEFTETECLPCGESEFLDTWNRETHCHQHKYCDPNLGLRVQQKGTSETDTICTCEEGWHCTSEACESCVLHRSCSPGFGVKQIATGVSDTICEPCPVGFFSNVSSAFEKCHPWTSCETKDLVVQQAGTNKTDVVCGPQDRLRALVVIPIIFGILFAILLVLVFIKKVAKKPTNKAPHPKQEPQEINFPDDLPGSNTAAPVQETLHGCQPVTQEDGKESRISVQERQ

T3 sequence (Q13421 other isoform, or with tags, fused parts or gaps limits assumed): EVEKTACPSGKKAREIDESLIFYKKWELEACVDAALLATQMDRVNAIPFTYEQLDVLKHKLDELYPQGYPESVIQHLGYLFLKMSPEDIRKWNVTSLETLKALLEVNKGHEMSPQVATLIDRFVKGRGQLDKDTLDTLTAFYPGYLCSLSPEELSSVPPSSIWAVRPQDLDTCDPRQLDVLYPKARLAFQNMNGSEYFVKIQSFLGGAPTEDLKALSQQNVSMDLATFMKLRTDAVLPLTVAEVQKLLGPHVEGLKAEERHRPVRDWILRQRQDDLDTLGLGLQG
T4 sequence (Q13421 other isoform, or with tags, fused parts or gaps limits assumed): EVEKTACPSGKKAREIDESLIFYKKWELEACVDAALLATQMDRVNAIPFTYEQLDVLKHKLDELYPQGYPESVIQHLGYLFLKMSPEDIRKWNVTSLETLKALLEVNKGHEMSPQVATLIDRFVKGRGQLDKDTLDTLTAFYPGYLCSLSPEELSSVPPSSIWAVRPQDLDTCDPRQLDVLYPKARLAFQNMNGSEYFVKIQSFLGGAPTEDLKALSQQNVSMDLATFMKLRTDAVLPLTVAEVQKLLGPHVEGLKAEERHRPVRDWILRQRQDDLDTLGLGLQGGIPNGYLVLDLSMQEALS

B1: TABBY102-rIgG1 (antibody, V domains shown)
VH: QVQLQQSGAELAKPGSSVKISCKASGYTLTSYYLNWIKQTTGQGLEYIGYIDTGSGGSHYNEKFKGKATLTVDKSSSTAFMQLSSLTPVDSAVYYCARGGYYDGFFDYWGQGVMVTVSS
VL: DIQMTQSPASLSASLGETVSIECLASEGISNDLAWYQQKSGKSPQFLIYAASRLQDGVPSRFSGSGSGTRYSLKISGMQPEDEADYFCQQSYKYPPTFGSGTKLEIK
notes: rat IgG1, kappa
Binder B1 has a Kd (mouse 4-1BB) of 0.84 nM.

B2: HuAM5 (antibody, V domains shown)
VH: EVQLVQSGAEVKKPGASVKVSCKASGDTFNRYYVHWVRQAPGQGLEWMGIINPSGVSTTYAQKFQGRVTMTRDTSTSTVYMELSSLRSEDTAVYYCAEVRGSGYNYFAMDVWGQGTLVTVSS
VL: SYELTQPPSVSVSPGQTASITCSGDKLGDKYASWYQQKPGQSPVLVIYQDNRRPSGIPERFSGSNSGNTATLTISGTQAMDEADYYCQAWDSDTYVFGTGTKVTVL
notes: fully human antibody
For B2, the Kd (cynomolgus mesothelin) was 4.9 nM, the koff (cynomolgus mesothelin) was 0.0001 s⁻¹ and the kon (cynomolgus mesothelin) was 20000 M⁻¹ s⁻¹. For the same binder, the Kd (human mesothelin) was no more than 0.46 nM, the koff (human mesothelin) was no more than 1e-05 s⁻¹ and the kon (human mesothelin) was 23000 M⁻¹ s⁻¹. The EC50 [1] was 0.09 mg/L, the “Maximum binding (MFI)” value [1] was 10000 MFI and the EC50 [2] was 0.7 mg/L. For the same binder, the “Maximum binding (MFI)” value [2] was 3690 MFI.

B3: HuAM16 (antibody, V domains shown)
VH: EVQLVQSGAEVKKPGASVKVSCKASGDTFNRYYVQWVRQAPGQGLEWMGIINPSGVSTTYAQKFQGRVTMTRDTSTSTVYMELSSLRSEDTAVYYCAETRGSGFNYFGMDVWGQGTLVTVSS
VL: SYELTQPPSVSVSPGQTASITCSGDKLGDKYASWYQQKPGQSPVLVIYQDNRRPSGIPERFSGSNSGNTATLTISGTQAMDEADYYCQAWDSDTYVFGTGTKVTVL
notes: fully human antibody
In the case of B3, the Kd (cynomolgus mesothelin) is reported as 4.1 nM, the koff (cynomolgus mesothelin) is reported as 0.00019 s⁻¹ and the kon (cynomolgus mesothelin) is reported as 47000 M⁻¹ s⁻¹. The Kd (human mesothelin) was 0.46 nM, the koff (human mesothelin) was 2.4e-05 s⁻¹ and the kon (human mesothelin) was 52000 M⁻¹ s⁻¹. For the same binder, the EC50 [1] was 0.08 mg/L, the “Maximum binding (MFI)” value [1] was 9540 MFI and the EC50 [2] was 0.6 mg/L. The “Maximum binding (MFI)” value [2] was 3610 MFI.

B4: huAb6-2 (antibody, human IgG1, V domains shown)
VH: EVQLVQSGAEVKKPGSSVKVSCKASGYTFTSYWMHWVRQAPGQGLEWIGNIDPSNGETHYNQKFKDRVTITVDKSTSTAYMELSSLRSEDTAVYYCARERIYYSGSTYDGYFDVWGQGTTVTVSS
VL: DIQLTQSPSFLSASVGDRVTITCSASSSLSYMHWYQQKPGKSPKRWIYDTSKLASGVPSRFSGSGSGTEYTLTISSLQPEDFATYYCQQWSSNPWTFGGGTKVEIK
notes: human IgG1, kappa
In the case of B4, the binding result (mouse CD40) is reported as “no binding”, the binding result (dog CD40) is reported as “no binding” and the “Maximal activation (OD655)” value [3] is reported as 0.2 OD655. The “NF-κB activation EC50, HEK293 CD40 NFκB reporter cells” value (shortened to “NF-κB activation EC50”) [3] was 1.21 mg/L.

B5: huAb6-1 (antibody, human IgG1, V domains shown)
VH: EVQLVQSGAEVKKPGSSVKVSCKASGYTFTSYWMHWVRQAPGQGLEWIGNIDPSNGETHYNQKFKDRATLTVDKSTSTAYMELSSLRSEDTAVYYCARERIYYSGSTYDGYFDVWGQGTTVTVSS
VL: DIQLTQSPSFLSASVGDRVTITCSASSSLSYMHWYQQKPGKSPKRWIYDTSKLASGVPSRFSGSGSGTEYTLTISSLQPEDFATYYCQQWSSNPWTFGGGTKVEIK
notes: human IgG1 heavy chain constant region, kappa light chain constant region
With B5 the binding result (mouse CD40) was “no binding”, the binding result (dog CD40) was “no binding” and the “Maximal activation (OD655)” value [3] was 0.26 OD655. The “NF-κB activation EC50” value [3] was 1.09 mg/L.

B6: huAb6-3 (antibody, human IgG1, V domains shown)
VH: EVQLVQSGAEVKKPGSSVKVSCKASGYTFTSYWMHWVRQAPGQGLEWIGNIDPSNGETHYAQKFQGRVTITVDKSTSTAYMELSSLRSEDTAVYYCARERIYYSGSTYDGYFDVWGQGTTVTVSS
VL: DIQLTQSPSFLSASVGDRVTITCSASSSLSYMHWYQQKPGKSPKRWIYDTSKLASGVPSRFSGSGSGTEYTLTISSLQPEDFATYYCQQWSSNPWTFGGGTKVEIK
notes: human IgG1, kappa
With B6 the binding result (mouse CD40) was “no binding”, the binding result (dog CD40) was “no binding” and the “Maximal activation (OD655)” value [3] was 0.32 OD655. The “NF-κB activation EC50” value [3] was 4.31 mg/L.

B7: TABBY103-rIgG1 (antibody, V domains shown)
VH: QVQLQQSGAELVKPGSSVKISCKASDYTFTSNFLHWIKQQPGNGLEWIGWINPGDGDTYYNQKFNGKATLTADKSSTTAYMQLSSLTSEDSAVYFCAGGNYYAAHYPPGPWYFDFWGPGTMVTVSS
VL: DTVLTQSPALAVSLGQRVTISCRASKSVSIYMHWYQQKSGQQPKFLIYTASNLESGVPSRFSGSGSGTDFTLTIDPVEADDIANYYCQQSNELPFTFGSGTKLEIK
notes: rat IgG1, kappa
B7 gave a Kd (mouse 4-1BB) of 0.17 nM.

B8: huAb9-2 (antibody, human IgG1, V domains shown)
VH: EVQLQESGPGLVKPSETLSLTCTVSGYSITSNYYWNWIRQPPGKGLEWMGYIRYDGSNNYNPSLKNRVTISRDTSKNQFSLKLSSVTAADTAVYYCARLDYWGQGTTVTVSS
VL: DAVMTQTPLSLSVTPGQPASISCRSSQSLENTNGNTFLNWFLQKPGQSPQLLIYRVSNRFSGVPDRFSGSGSGTDFTLKISRVEAEDVGVYFCLQVTHVPFTFGQGTKLEIK
notes: human IgG1, kappa
B8 was tested, and the binding result (mouse CD40) was “no binding”, the binding result (dog CD40) was “no binding” and the “Maximal activation (OD655)” value [3] was 0.27 OD655. The “NF-κB activation EC50” value [3] was 0.29 mg/L.

B9: huAb9-6 (antibody, human IgG1, V domains shown)
VH: EVQLQESGPGLVKPSETLSLTCTVSGYSISSNYYWNWIRQPPGKGLEWMGYIRYDGSNNYNPSLKSRVTISRDTSKNQFSLKLSSVTAADTAVYYCARLDYWGQGTTVTVSS
VL: DAVMTQTPLSLSVTPGQPASISCRSSQSLENTNGNTFLNWYLQKPGQSPQLLIYRVSNRFSGVPDRFSGSGSGTDFTLKISRVEAEDVGVYYCLQVTHVPFTFGQGTKLEIK
notes: human IgG1, kappa
With B9 the binding result (mouse CD40) was “no binding”, the binding result (dog CD40) was “no binding” and the “Maximal activation (OD655)” value [3] was 0.54 OD655. The “NF-κB activation EC50” value [3] was 5.95 mg/L.

B10: huAb9-4 (antibody, human IgG1, V domains shown)
VH: EVQLQESGPGLVKPSETLSLTCTVSGYSITSNYYWNWIRQPPGKGLEWMGYIRYDGSNNYNPSLKNRITISRDTSKNQFSLKLSSVTAADTAVYYCARLDYWGQGTTVTVSS
VL: DAVMTQTPLSLSVTPGQPASISCRSSQSLENTNGNTFLNWYLQKPGQSPQLLIYRVSNRFSGVPDRFSGSGSGTDFTLKISRVEAEDVGVYYCLQVTHVPFTFGQGTKLEIK
notes: human IgG1, kappa
B10 was tested, and the binding result (mouse CD40) was “no binding”, the binding result (dog CD40) was “no binding” and the “Maximal activation (OD655)” value [3] was 0.61 OD655. For the same binder, the “NF-κB activation EC50” value [3] was 5.55 mg/L.

B11: huAb9-1 (antibody, human IgG1, V domains shown)
VH: EVQLQESGPGLVKPSETLSLTCTVSGYSITSNYYWNWIRQPPGKGLEWMGYIRYDGSNNYNPSLKNRITISRDTSKNQFSLKLSSVTAADTAVYYCARLDYWGQGTTVTVSS
VL: DAVMTQTPLSLSVTPGQPASISCRSSQSLENTNGNTFLNWFLQKPGQSPQLLIYRVSNRFSGVPDRFSGSGSGTDFTLKISRVEAEDVGVYFCLQVTHVPFTFGQGTKLEIK
notes: human IgG1, kappa
For B11, the binding result (mouse CD40) was “no binding”, the binding result (dog CD40) was “no binding” and the “Maximal activation (OD655)” value [3] was 0.26 OD655. The “NF-κB activation EC50” value [3] was 0.19 mg/L.

B12: huAb9-3 (antibody, human IgG1, V domains shown)
VH: EVQLQESGPGLVKPSETLSLTCTVSGYSISSNYYWNWIRQPPGKGLEWMGYIRYDGSNNYNPSLKSRVTISRDTSKNQFSLKLSSVTAADTAVYYCARLDYWGQGTTVTVSS
VL: DAVMTQTPLSLSVTPGQPASISCRSSQSLENTNGNTFLNWFLQKPGQSPQLLIYRVSNRFSGVPDRFSGSGSGTDFTLKISRVEAEDVGVYFCLQVTHVPFTFGQGTKLEIK
notes: human IgG1, kappa
B12 was tested, and the binding result (mouse CD40) was “no binding”, the binding result (dog CD40) was “no binding” and the “Maximal activation (OD655)” value [3] was 0.27 OD655. The “NF-κB activation EC50” value [3] was 0.18 mg/L.

B13: huAb8-3 (antibody, human IgG1, V domains shown)
VH: EVQLVQSGAEVKKPGSSVKVSCKASGYTFTDYYINWVRQAPGQGLEWIGWIFPGSGSVYCNEQFKGRVTITVDKSTSTAYMELSSLRSEDTAVYYCASSLGKFAYWGQGTLVTVSS
VL: DIQMTQSPSSLSASVGDRVTITCKASQSVVTAVAWYQQKPGKSPKLLIYSASNRYTGVPSRFSGSGSGTDFTLTISSLQPEDFATYFCQQYSSYPYTFGGGTKVEIK
notes: human IgG1, kappa
B13 was tested, and the binding result (mouse CD40) was “no binding”, the binding result (dog CD40) was “no binding” and the “Maximal activation (OD655)” value [3] was 0.46 OD655. For the same binder, the “NF-κB activation EC50” value [3] was 0.07 mg/L.

B14: TABBY101-rIgG1 (antibody, V domains shown)
VH: QIQLVQSGPELKKPGESVKISCKASGYTFTDFAIHWVKQAPGKGLKWMGWINTYTGKPTYADDFKGRFVFSLEASASTANLQISNLKNEDTATYFCSRGAPRPTNWGQGTLVTVSS
VL: DIQMTQSPASLSASLGETVSIECLASEDIYNNLAWYQQKPGKSPQLLIYYESRLQDGVPTRFSGSGSGTQYSLKINSLESEDAATYFCLQDSEYPYTFGAGTKLELK
notes: rat IgG1, kappa
B14 was tested, and the Kd (mouse 4-1BB) was 0.82 nM.
